# Data published in PMC12041195.
# Legend:
# Assay in all cases: BLI
# [1] = target: recombinant HA protein of A/Hong Kong/45/2019 (H3N2) (influenza A virus A/Hong Kong/45/2019 (H3N2))
# [2] = target: recombinant HA protein of A/Aichi/2/1968 (H3N2) (influenza A virus A/Aichi/2/1968 (H3N2)) (UniProt P03437)
# [3] = target: recombinant HA protein of A/New Caledonia/20/1999 (H1N1) (influenza A virus A/New Caledonia/20/1999 (H1N1))
# [4] = target: recombinant HA protein of A/Beijing/262/1995 (H1N1) (influenza A virus A/Beijing/262/1995 (H1N1))
Substance,Kd [1],Kd [2],Kd [3],Kd [4]
IgG-F045-092 (antibody),12500 pM,–,–,–
IgM-F045-092 (from UniProt P01591 23-159) (antibody),< 1 pM,< 1 pM,< 1 pM,< 1 pM
